Assay results taken from the NTF2 design screens of Basanta et al. (2020).

Test: protease stability score; higher = more stable; yeast display proteolysis, trypsin and chymotrypsin;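 note: log10 excess protease needed over predicted unfolded state with 0 meaning unfolded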

| Sequence | protease stability score |
| --- | --- |
| DEEDIRRIVHEFNRAVQRGNPDDVVRLLDKHAKIVVGEFDVTGREDARKFAEQLRSMADHVTIKSMSVQGDKAHVVIVFDINGKKLTLTFEVQLHNGRVQNLHVDVRDEEEFSRNVG | 0.782 |
| DEEDKADQFLRDLRQALQHNDENRMKELADKDARLNVGDKSVQGREQVVEHLVEKAKQVDDIKINIHTIKVHDGRFKFRATFVFNHNGKEESDEIVLVAHESNGKLKLLEVKEG | 1.14 |
| DEEDKKKLNHTVANVIQHGDEKQARRLMDPNVKVVIGDKTYNGRHKATEALKTLRDRADEIRVHDFRLEGDHINIIIELHINGQQTTLEIEVQFSGDKIKSVVFKTR | 0.795 |
| DEEDKKRLDTFDDNEDRGDRTKVRELADPNAKYEYGDNTVHGREDLEKMVHHLKNQLRIRVKSVEKRMHNGTLRASQREQQDHNGRPDDNSFDQDVHIHNGRIKQNVVEERK | -0.15 |
| DEEDKMTELTSRMIQAVRQNDFHKIVDQFDKNVTFEVGDHRVHGRTQAQEWARHLLRRVDHATVNLKHVEVQGDTARVKMQLILDRNGRRETRTVIIEAEIDGDKVRAKKLSIG | 1.66 |
| DEEDLDRVESALRTNDPDTLSEMADKDVKVEYGDKSYQGRERFQHFIKQLAHQVDHVEVRSVDKRGDRLKATRVLVINGRSITVVVTIEARNGRIKMLEMSARNESQEKKLVELFQ | 0.941 |
| DEEDLDTVAQTFVTALKQGDPHQVMKLADEDVKATVGDERVHGSQHVNELIKRFRRNVDHVDIEDYRIHNGKIRMRVRLTVNGRTQNLNMVLIVRNGRLKMFKIDPQDVRQFHG | 0.972 |
| DEEDLERMQDFMRAINKGDEDRLTKLVDENVHWVVGDKRVHGREQLRKEVDRRREKMSIKFDRVDAHADNGHAVVNIEYNVKHNGQPTSNFVRVQAEATNGKIKEVVVQEDK | -0.279 |
| DEEDLHHLAREMKDLMQRGDHKRFEELADENARLIIGDKTVTGRTRIKDELRKWREEADHIQIHDVRASGNRINLDIRVVVNGQEHRFIVIIELKNGKVSQMEVEDS | 1.91 |
| DEEDLHNALNAWKAFNTGDPDRAVQLADPNVNVVIGDKHVHGREQLSHEIKRVRHESNVQVRHVNNDNQGEKAKVQAEMVDTQNGQPRTFTVDIDVRAHNGKLKEVKVQEQD | -0.322 |
| DEEDLHRNMKQMLKDFNTGDPDKIQEQIDPNAKVQVGDTTFHGREEAHRMARDFRHQVDHIQLKEVKVRGNEFEASVVVKYDGKERRFVMQANVHNGKVKKLWFEDK | 0.063 |
| DEEDLKEFVKILKEGDPEKLKKMVDENVTIEIGDKRVSGKEKARDLAENFRERVDSHHIHRVDIEGERMVVDVEVSVNGRRIRYTLFAEVHNGKLKQQSVQYTSEEQRKLLTEMWT | 0.3 |
| DEEDLKHMNENFESGNPDQIVEMFDKDARITVGNKKYRGREDIRKFAEMIRKQVDNRRLKSVEVEGNKFRIQWMFVVNGRRIEAVLHVHAHNGKVKEMSIEVTNPEDQTQYDRDAD | 1.66 |
| DEEDLKKLAKELEKAIKTGDPQKIVDMADPNAKAQIGDKEVHGQENLHEAMQKLSREVDHIEIRSLSIHGEKVELVFVLQVNGRKRTYTVEMTAHNGKITHMTWRHQ | 0.284 |
| DEEDLKKVVDQLIKAVVNGDVEKIVKYIDEDVEFKLGDTKYKGKEEAKKVVTKLVQVGAEVHVDHVRVKGDEAEVDTVWHIGNTEAHMTVKYVVRGDKVERVEVRWTEEVKKAIKAG | 1.46 |
| DEEDLKNQARDFIEALETGDEDQIARLADPDAEADVGDTKYTGREEVREYMKHISDNVDHIQLKDMKVSGNEITIVAVLNVNGHEFDMEIHIELHNGRAKTIRIDPRAINHMTK | 0.746 |
| DEEDLKRLAETFADALQRNDPSQLNKMIDPNAKVQYGEKTFHGREKLHEWAHEMKKQADHFEIRSITVEGESVVIDLRMIVNGHERRLNLTMHLKNGRIQHLRADSR | 0.943 |
| DEEDLKRLREMHKAVSRGDPRQIQENMDPNVRVQYGDKTIHGREHIASELITKMKHWRLDFKRYHATVTPNRVQVHIDYIERHNGKPHKNKNKAEAEVDNGKIKRYQQSSDG | -0.03 |

| Sequence | protease stability score |
| --- | --- |
| DEEDLKRVVDILHQNDPDQMIEMADENVKLEVGDKEFHGREEFSKFQRRIRDAVDHVEVKSLSHHNGRINMTFVLQINGRRIEFSAVVRVHNGKIKSMKVNATNEDDQSRFESQLS | 0.192 |
| DEEDLKTAHRRQRTNDFDRIRNKADKDAHVQVGDTQVHGREEVKKFMTLLKKRVDHVEIHDIEKKPGRLVVELRMNVNGQEIDLVVMFQFKNGSLKHMRFKVRDEDDKRKLEKALS | 0.432 |
| DEEDLKTMFDVMETGDPNQIADQFDKDARVVVGNRRVRGKEHIHTWAHEWRKNVDHQQVDSYEIKGDNARVDMQATINGTRFVFEIIIQVHNGKAKEMELRVRDEEEKKELDEVLE | -0.026 |
| DEEDLNKFAEHVVHALQEGNPDQLMHLADENVKMTVGDTSVEGKDQVSEYWTEMKERIDHFSYTSVDVRGNTIEIRFTADVDGRELRQVLIIEVRNGRAKSISIEDG | 1.88 |
| DEEDLQKLARSFQENLKTGNPDELMKLFDEDANLHYGDKKVHGREDIRRWADEMRRRVDKVTVLQVDAHGDKMDAVIVQRFDGRDVMISVDAKFHNGRFKEVVYRVRDEEHEKRLHT | 1.38 |
| DEEDLQRVAEEVARALDTGNPDKFNSLLDKDAKVNYGDKEYTGREELKKLQERIKEHVDHVHVKRVKVEGEKIHLDIEFEVNGRRFRDTIEARVHNGELQKVHVDPNFVRELKQ | 0.842 |
| DEEDLREIVEEMRTGDEDKFNKNLDENVKVEIGDKTWQGREQAQKMHADVMRRADNVRLKEYEVHNGHVDADLTVEINGRSVEYVMKIEIDNGTMKRIEVTVRDETQEDIQRKVLE | 0.309 |
| DEEDLRHLIELMEKGDFSRIADQADEDVRVDIGDKRIHGREQVLTYAEKLSKNIDHVKIQHYHVEGNKLVVDMVIVVNGKDVRATLTAEISNGRLKHMELHATNEEQQTRLKEIIS | 0.871 |
| DEEDLRKQANEVAEMFMHGDPTDAREQFDKHAEVQYGDKVVHGKEQAAQLVKEFRDNVDRVELKRVEAHGDKVTVTVVFTVNGRKVVIVFEMRIHNGKIKSVDAHVTSEELHKRMQD | 0.155 |
| DEEDLRTRASEFNKVLENNDPDRLNKLADKDATANYGDHEYHGREDIHHMAETMVRQVDRIEIKHVQARNGRVKVDLIMRVNGKEVKVDVTMEFHNGHLKLVTFDPDQVRKVEG | 0.673 |
| DEEDLSDVLDKMDKAIVRGDEQKLQDLADPNVRAEIGDQKYHGRDAITMFFKVLTEQVDHMRIKTVELQGNKLYIVVSAHFNGQTYDVRFVADAHNGRITRIYVDPQAQKRMEE | 1.29 |
| DEEDLTRLHKLWRNNNWKELVNQMDPNARVTVGDEVIQGRENVTHWADRVEHQIDHYEIKDFRRQGNKILVLFRAEVNGQRFEAIVAVLMVNGDVHHLEVRFRDERDEKKFKEHVS | 1.48 |
| DEEDMDEVEKAIRKNDPEKMRDLADENAKASVGDNQFHGRDNVENFMKHLTDHADHVQVDSVEKHNGRVVVNAQLDINGEQIQIVIRIDVHNGKIKRFSIEVRDEEAHHFMREMVS | 0.895 |
| DEEDMKKVVKQLLEAAQNGNTEKIVQLVKKDVEFKLGDTEYRGQEDVRKVVKKLRDIGAEFHVKEYEATGGEAKVKTVWHIGDNEAHVEVKYTVEDDKVDRVEVRWSEKAQKQIKKG | 0.801 |
| DEEDMKRVQDLIKAFQEGDPDKVVEQIDPNARIEVGDQHVSGRQHIRETIHNRVEEAEIHYESITLRVRGNTVEVRMVFVENKNGRPKRVHVKIEVQMHNGKVKEIREQEVS | 0.969 |
| DEEDMNTLQKMNEKNDEEKLQKLADEDARFVVGDKTLTGHHEFQTFVHRFVKHVDHLQVDSVEVQGNQVDLDVRAEINGRHYRFQIVIIIQNGRLKEYRLQATDEDEEEKFKKMIE | 1.25 |
| DEEDMQRFFKEFLKAQETGDPDEIRRQMDPNARAHVGDKEYHGREQVAKMFRDVRERVDRIRIESVDIQGNKANVDVTYNVNGRKARINVTLKAHNGRFKEMHFNPEDTKEMEK | 0.033 |
| DEEDNETALRTMMELIVEGNTNQAHRLFDENATVKIGDTTFHGREQIAQAIRHLHEQADHMEVKDFRLTGDKARANVQLHHNGKTIEVDVVFRVSNGRVKHMFIDPQQVRHLRG | 1.05 |
